Test [1] addresses SARS-CoV-2 RBD protein (wild type) (SARS-CoV-2, UniProt P0DTC2). In words: ELISA. The following applies: both partners purified. (ELISA stands for enzyme-linked immunosorbent assay.)
The next test deals with SARS-CoV-2 NTD protein (SARS-CoV-2 Wuhan-Hu-1, UniProt P0DTC2). In words: ELISA. The note with it: both partners purified.

B1: MAb S3H3 (antibody, V domains shown)
VH: QVQLQQPGAELVRPGASVKLSCKASGYSFTRFWMNWVKQRPGQGLEWIGMIHPSDSETRLNQKFKDKATLTVDKSSTTAYMQLSSPTSEDSAVYYCARKDYDYDAWFAYWGQGTLVTVSA
VL: DIVLTQSPASLAVSLGQRATISCRASKSVSASVYSYMHWYQQKPGQPPKLLIYLASSLESGVPARFSGSGSGTDFTLNIHPVEEEDAATYYCHHSRELPPAFGGGTKLEIK
For the molecule B1, the binding result (in test [1]; in the test with SARS-CoV-2 NTD protein) was “no binding (tested: 100 ng/well)” throughout.

(Values after PMC8794075 (Emerging Microbes & Infections, 2022).)
